Source: paper PMC12098869, “An mRNA-display derived cyclic peptide scaffold reveals the substrate binding interactions of an N-terminal cysteine oxidase” (Nature Communications, 2025)

B1: 2-aminoethanethiol dioxygenase (ADO), full-length human, N-terminally His-tagged and biotinylated (pQE80L-Navi-ADO) [modified: biotin (biotinylated during expression, 0.2 mM biotin added); biotin (biotinylated during … (parent)
chain 1: CFPKVLSDDMKKLK
chain 2: MPRDNMASLIQRIARQACLTFRGSGGGRGASDRDAASGPEAPMQPGFPENLSKLKSLLTQLRAEDLNIAPRKATLQPLPPNLPPVTYMHIYETDGFSLGVFLLKSGTSIPLHDHPGMHGMLKVLYGTVRISCMDKLDAGGGQRPRALPPEQQFEPPLQPREREAVRPGVLRSRAEYTEASGPCILTPHRDNLHQIDAVEGPAAFLDILAPPYDPDDGRDCHYYRVLEPVRPKEASSSACDLPREVWLLETPQADDFWCEGEPYPGPKVFP
B2: 2-aminoethanethiol dioxygenase (ADO), full-length human, N-terminally His-tagged and biotinylated (pQE80L-Navi-ADO) [modified: biotin (biotinylated during expression, 0.2 mM biotin added); biotin (biotinylated during … (parent)
chain 1: CKGLAALPHSCLER
chain 2: B1 chain 2

Variants of: B1
Test: SPR
Conditions: with IL32_(2-15), parent: 1, read off a plot

Row | Variant | ratio to parent (fold difference)
1 | chain 2 MPRDNMASLIQRIARQACLTFRGSGGGRGASDRDAASGPEAPMQPGFPENLSKLKSLLTQLRAEDLNIAPRKATLQPLPPNLPPVTYMHIYETDGFSLGVFLLKSGTSIPLHDHPGMHGMLKVLYGTVRISCMDKLDAGGGQRPRALPPEQQFEPPLQPREREAVRPGVLRSRAEYTEASGPCILTPHRDNLHQIDAVEGPAAFLNILAPPYDPDDGRDCHYYRVLEPVRPKEASSSACDLPREVWLLETPQADDFWCEGEPYPGPKVFP [chain 2 D206N] | -7
2 | chain 2 MPRDNMASLIQRIARQACLTFRGSGGGRGASDRDAASGPEAPMQPGFPENLSKLKSLLTQLRAEDLNIAPRKATLQPLPPNLPPVTYMHIYETDGFSLGVFLLKSGTSIPLHDHPGMHGMLKVLYGTVRISCMDKLDAGGGQRPRALPPEQQFEPPLQPREREAVRPGVLRSRAEYTEASGPCILTPHRDNLHQIDAVEGPAAFLDILAPPADPDDGRDCHYYRVLEPVRPKEASSSACDLPREVWLLETPQADDFWCEGEPYPGPKVFP [chain 2 Y212A] | 60
3 | chain 2 MPRDNMASLIQRIARQACLTFRGSGGGRGASDRDAASGPEAPMQPGFPENLSKLKSLLTQLRAEDLNIAPRKATLQPLPPNLPPVTYMHIYETDGFSLGVFLLKSGTSIPLHDHPGMHGMLKVLYGTVRISCMDKLDAGGGQRPRALPPEQQFEPPLQPREREAVRPGVLRSRAEYTEASGPCILTPHRDNLHQIDAVEGPAAFLDILAPPFDPDDGRDCHYYRVLEPVRPKEASSSACDLPREVWLLETPQADDFWCEGEPYPGPKVFP [chain 2 Y212F] | 19

Variants of: B2
Test: SPR
Conditions: with RGS5_(2-15), parent: 1, read off a plot

Row | Variant | ratio to parent (fold difference)
4 | chain 2 MPRDNMASLIQRIARQACLTFRGSGGGRGASDRDAASGPEAPMQPGFPENLSKLKSLLTQLRAEDLNIAPRKATLQPLPPNLPPVTYMHIYETDGFSLGVFLLKSGTSIPLHDHPGMHGMLKVLYGTVRISCMDKLDAGGGQRPRALPPEQQFEPPLQPREREAVRPGVLRSRAEYTEASGPCILTPHRDNLHQIDAVEGPAAFLDILAPPADPDDGRDCHYYRVLEPVRPKEASSSACDLPREVWLLETPQADDFWCEGEPYPGPKVFP [chain 2 Y212A] | 110
5 | chain 2 MPRDNMASLIQRIARQACLTFRGSGGGRGASDRDAASGPEAPMQPGFPENLSKLKSLLTQLRAEDLNIAPRKATLQPLPPNLPPVTYMHIYETDGFSLGVFLLKSGTSIPLHDHPGMHGMLKVLYGTVRISCMDKLDAGGGQRPRALPPEQQFEPPLQPREREAVRPGVLRSRAEYTEASGPCILTPHRDNLHQIDAVEGPAAFLDILAPPFDPDDGRDCHYYRVLEPVRPKEASSSACDLPREVWLLETPQADDFWCEGEPYPGPKVFP [chain 2 Y212F] | 39
6 | chain 2 MPRDNMASLIQRIARQACLTFRGSGGGRGASDRDAASGPEAPMQPGFPENLSKLKSLLTQLRAEDLNIAPRKATLQPLPPNLPPVTYMHIYETDGFSLGVFLLKSGTSIPLHDHPGMHGMLKVLYGTVRISCMDKLDAGGGQRPRALPPEQQFEPPLQPREREAVRPGVLRSRAEYTEASGPCILTPHRDNLHQIDAVEGPAAFLNILAPPYDPDDGRDCHYYRVLEPVRPKEASSSACDLPREVWLLETPQADDFWCEGEPYPGPKVFP [chain 2 D206N] | -4
